The supplement of paper PMC10567573
± gives the standard deviation.

Test: protein stability index of a GFP-peptide fusion (GPS, HEK-293T) (PSI 1-6); higher = more stable
Details: c terminus: a fixed tail appended
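Also: 24-mer peptide tiles fused after GFP, lentivirally expressed, FACS-sorted into six equal bins by GFP/DsRed ratio, decoded by Illumina sequencing, PSI is the read-weighted mean bin number.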

## KLSPLRLSVSNNQEPDFIDDIEEK [KMT2E]
treatment: DMSO
  protein stability index: 4.9 ± 0.24
treatment: MLN4924 1 uM, 8 h
  protein stability index: 5.06 ± 0.12

## PVQGSSEDNLSLVCLPRSEDDDCD [DRICH1]
treatment: DMSO
  protein stability index: 5.62 ± 0.2
treatment: MLN4924 1 uM, 8 h
  protein stability index: 5.53 ± 0.21

## AMKITQEPQGLGYWEAWRHHCQGK [SPACA3]
treatment: DMSO
  protein stability index: 3.05 ± 0.18
treatment: MLN4924 1 uM, 8 h
  protein stability index: 3.17 ± 0.29

## NTRGTGSSSSGVLMVGPNFRVGKK [CSNK1G3]
treatment: DMSO
  protein stability index: 4.48 ± 0.2
treatment: MLN4924 1 uM, 8 h
  protein stability index: 4.51 ± 0.18

## RFHGRLLFLKDVLGDEICCWSFYG [KCTD13]
treatment: DMSO
  protein stability index: 2.49 ± 0.38
treatment: MLN4924 1 uM, 8 h
  protein stability index: 2.56 ± 0.71

## SSSSSASSSASSSFSEEGAVGYSS [NFE2L1]
treatment: DMSO
  protein stability index: 5.25 ± 0.16
treatment: MLN4924 1 uM, 8 h
  protein stability index: 5.32 ± 0.13

## LIDHLALRARNYEYLIRLFQEWEA [TCF25]
treatment: DMSO
  protein stability index: 2.1 ± 0.27
treatment: MLN4924 1 uM, 8 h
  protein stability index: 2.43 ± 0.36

## MSFPHFGHPYRGASQFLASASSST [IRX6]
treatment: DMSO
  protein stability index: 3.25 ± 0.21
treatment: MLN4924 1 uM, 8 h
  protein stability index: 3.13 ± 0.25

## RKAITEAANAARHVAPEIRELLTQ [PWWP2B]
treatment: DMSO
  protein stability index: 4.06 ± 0.29
treatment: MLN4924 1 uM, 8 h
  protein stability index: 4.05 ± 0.079

## EPGGYDSSSTLMSSELETTSFFDS [DVL3]
treatment: DMSO
  protein stability index: 4.96 ± 0.31
treatment: MLN4924 1 uM, 8 h
  protein stability index: 4.96 ± 0.21

## AAMLRGQSDVGVAVFENKIYVVGG [KLHL13]
treatment: DMSO
  protein stability index: 2.07 ± 0.12
treatment: MLN4924 1 uM, 8 h
  protein stability index: 2.46 ± 0.55

## GGAICGGPDHRLRLWRLFQTLDVN [SLC25A25]
treatment: DMSO
  protein stability index: 2.33 ± 0.27
treatment: MLN4924 1 uM, 8 h
  protein stability index: 2.48 ± 0.42

## DWYQKQTPTSPECDYSQYFKTIEE [KRT15]
treatment: DMSO
  protein stability index: 3.86 ± 0.23
treatment: MLN4924 1 uM, 8 h
  protein stability index: 3.97 ± 0.26

## QILKDTKSITSAMNELQHDLDVVS [TPH1]
treatment: DMSO
  protein stability index: 3.82 ± 0.24
treatment: MLN4924 1 uM, 8 h
  protein stability index: 3.97 ± 0.092

## ITYPMLFKLTNKNSDRMTHCGVLE [UFD1]
treatment: DMSO
  protein stability index: 2.46 ± 0.17
treatment: MLN4924 1 uM, 8 h
  protein stability index: 2.43 ± 0.23

## FCGATIAGLSLLSPSVMRLVHTQE [ALKBH7]
treatment: DMSO
  protein stability index: 3.06 ± 0.44
treatment: MLN4924 1 uM, 8 h
  protein stability index: 2.71 ± 0.96

## MAAPEERDLTQEQTEKLLQFQDLT [FAF2]
treatment: DMSO
  protein stability index: 5.13 ± 0.29
treatment: MLN4924 1 uM, 8 h
  protein stability index: 5.16 ± 0.2

## HSFQSSHRPSLNSVSLQINCQSVA [DLC1]
treatment: DMSO
  protein stability index: 2.95 ± 0.29
treatment: MLN4924 1 uM, 8 h
  protein stability index: 2.98 ± 0.28

## PRELASMSLVLHGNNLLVFGGTGI [KLHDC10]
treatment: DMSO
  protein stability index: 2.46 ± 0.71
treatment: MLN4924 1 uM, 8 h
  protein stability index: 2.45 ± 0.59

## YGSFHQQYWLDGKIIAVGVIDILP [ATE1]
treatment: DMSO
  protein stability index: 3.36 ± 0.39
treatment: MLN4924 1 uM, 8 h
  protein stability index: 3.16 ± 0.67

## SLQEEPVEGFRITLVDESDLYNWE [UBE2R2]
treatment: DMSO
  protein stability index: 3.66 ± 0.49
treatment: MLN4924 1 uM, 8 h
  protein stability index: 3.58 ± 0.4

## PAISITENVLHFKAQGHGAKGDNV [HACD3]
treatment: DMSO
  protein stability index: 4.54 ± 0.095
treatment: MLN4924 1 uM, 8 h
  protein stability index: 4.57 ± 0.37

## AIIRTPPKSPATPKQLRLINQPLP [MAP2]
treatment: DMSO
  protein stability index: 3.13 ± 0.19
treatment: MLN4924 1 uM, 8 h
  protein stability index: 3.15 ± 0.21

## TCSTRFVSGGSAGGYGGGVSCGFG [KRT13]
treatment: DMSO
  protein stability index: 2.46 ± 0.29
treatment: MLN4924 1 uM, 8 h
  protein stability index: 2.43 ± 0.31

## LSSDRVANSSSEAPFPNVSTSLLT [ADAMTSL2]
treatment: DMSO
  protein stability index: 4.17 ± 0.21
treatment: MLN4924 1 uM, 8 h
  protein stability index: 4.14 ± 0.29

## CEVWACNLDEEMKKIRQVIRKYNY [CNOT7]
treatment: DMSO
  protein stability index: 2.28 ± 0.19
treatment: MLN4924 1 uM, 8 h
  protein stability index: 2.23 ± 0.14

## KFLAFSGPHPKSKIENGYPLHAPE [CDC14A]
treatment: DMSO
  protein stability index: 3.23 ± 0.15
treatment: MLN4924 1 uM, 8 h
  protein stability index: 3.16 ± 0.29

## LDGKKKGVEPSPSPIKPGDIKRGI [UFD1]
treatment: DMSO
  protein stability index: 4.92 ± 0.24
treatment: MLN4924 1 uM, 8 h
  protein stability index: 4.92 ± 0.25

## RELWLKFHEVGTEMIITKAGRRMF [TBX5]
treatment: DMSO
  protein stability index: 2.31 ± 0.23
treatment: MLN4924 1 uM, 8 h
  protein stability index: 2.37 ± 0.31

## NESMKAYHNSPAYLAYINAKSRAE [SMARCE1]
treatment: DMSO
  protein stability index: 4.42 ± 0.27
treatment: MLN4924 1 uM, 8 h
  protein stability index: 4.26 ± 0.49

## RANRGILQQERQRLGQRQPPPSEP [DNAJC4]
treatment: DMSO
  protein stability index: 4.79 ± 0.22
treatment: MLN4924 1 uM, 8 h
  protein stability index: 4.79 ± 0.087

## QPPPQSSEGLVGALMHVMQKRSRA [WAS]
treatment: DMSO
  protein stability index: 4.21 ± 0.41
treatment: MLN4924 1 uM, 8 h
  protein stability index: 4.24 ± 0.12

## ECDNMLMLLSVSQSMSEEEREKVT [SEPHS2]
treatment: DMSO
  protein stability index: 4.58 ± 0.12
treatment: MLN4924 1 uM, 8 h
  protein stability index: 4.58 ± 0.24

## SVVGTVLAATQAEKAVANFDRTEW [ZC2HC1C]
treatment: DMSO
  protein stability index: 3.26 ± 0.21
treatment: MLN4924 1 uM, 8 h
  protein stability index: 3.26 ± 0.3

## YHNAGTQTVPKRIPERLSIFCRDT [IQUB]
treatment: DMSO
  protein stability index: 2.51 ± 0.28
treatment: MLN4924 1 uM, 8 h
  protein stability index: 3.04 ± 0.8

## NEPSQAETAVEGDPSGVSGATVGR [C18orf25]
treatment: DMSO
  protein stability index: 5.66 ± 0.22
treatment: MLN4924 1 uM, 8 h
  protein stability index: 5.66 ± 0.11

## GYEKRNLARVPKLDLKRQYDRVAQ [CHGB]
treatment: DMSO
  protein stability index: 3.37 ± 0.55
treatment: MLN4924 1 uM, 8 h
  protein stability index: 3.11 ± 0.29

## RDYIHSLKLLNVLEEYITDEQKEE [FAM9B]
treatment: DMSO
  protein stability index: 3.37 ± 0.38
treatment: MLN4924 1 uM, 8 h
  protein stability index: 3.52 ± 0.34

## FAQALGCVLYACFILGRLCVPVFA [SOAT2]
treatment: DMSO
  protein stability index: 3.03 ± 0.6
treatment: MLN4924 1 uM, 8 h
  protein stability index: 2.64 ± 0.55

## LGVAVAVLGGFLYAVGGSDGTSPL [KLHL20]
treatment: DMSO
  protein stability index: 2.86 ± 0.64
treatment: MLN4924 1 uM, 8 h
  protein stability index: 2.85 ± 0.51

## RDQHPQPSLGDSLESIPSLSQSPE [RTN2]
treatment: DMSO
  protein stability index: 5.44 ± 0.18
treatment: MLN4924 1 uM, 8 h
  protein stability index: 5.55 ± 0.12

## DMELHRMSRMQSKEYPVVPRSTVR [TBX5]
treatment: DMSO
  protein stability index: 4.35 ± 0.07
treatment: MLN4924 1 uM, 8 h
  protein stability index: 4.33 ± 0.15

## ECLKKFNARRKLKGAILTTMLATR [CAMK2B]
treatment: DMSO
  protein stability index: 2.98 ± 0.32
treatment: MLN4924 1 uM, 8 h
  protein stability index: 2.94 ± 0.29

## TYTHGLGLHRRPGAGHCSASPGPA
treatment: DMSO
  protein stability index: 3.42 ± 0.24
treatment: MLN4924 1 uM, 8 h
  protein stability index: 3.48 ± 0.24

## MSTFRQEDVEDHYEMGEELGSGQF [DAPK3]
treatment: DMSO
  protein stability index: 5.43 ± 0.22
treatment: MLN4924 1 uM, 8 h
  protein stability index: 5.33 ± 0.48
